Like-named read-outs stand apart in the source and are kept apart here. One block for each substance: values may come before it.
Tests used:
[1] = molecular target: KIF5C-KLC1 heterotetramer (human) (UniProt O60282)
[2] = molecular target: taxol-stabilised microtubules of porcine brain tubulin (porcine) (UniProt P02550); assay: single-molecule TIRF microscopy on microtubules; biotinylated taxol-stabilised MTs held on streptavidin-coated glass, motor in solution; 90 mM HEPES-KOH pH 7.6, 50 mM KCH3COO, 2 mM Mg(CH3COO)2, 1 mM EGTA, 10% glycerol, 2 mM ATP; landing rate = processive and non-processive events per MT length, time and motor concentration; set-up: landing rate: unit not given here
[3] = molecular target: taxol-stabilised microtubules of porcine brain tubulin (porcine) (UniProt P02550); assay: as above

Chain of KIF5B-Δhinge (Δ505-610)-mScarlet-StrepII (P33176 other isoform, or with tags, fused parts or gaps mutant): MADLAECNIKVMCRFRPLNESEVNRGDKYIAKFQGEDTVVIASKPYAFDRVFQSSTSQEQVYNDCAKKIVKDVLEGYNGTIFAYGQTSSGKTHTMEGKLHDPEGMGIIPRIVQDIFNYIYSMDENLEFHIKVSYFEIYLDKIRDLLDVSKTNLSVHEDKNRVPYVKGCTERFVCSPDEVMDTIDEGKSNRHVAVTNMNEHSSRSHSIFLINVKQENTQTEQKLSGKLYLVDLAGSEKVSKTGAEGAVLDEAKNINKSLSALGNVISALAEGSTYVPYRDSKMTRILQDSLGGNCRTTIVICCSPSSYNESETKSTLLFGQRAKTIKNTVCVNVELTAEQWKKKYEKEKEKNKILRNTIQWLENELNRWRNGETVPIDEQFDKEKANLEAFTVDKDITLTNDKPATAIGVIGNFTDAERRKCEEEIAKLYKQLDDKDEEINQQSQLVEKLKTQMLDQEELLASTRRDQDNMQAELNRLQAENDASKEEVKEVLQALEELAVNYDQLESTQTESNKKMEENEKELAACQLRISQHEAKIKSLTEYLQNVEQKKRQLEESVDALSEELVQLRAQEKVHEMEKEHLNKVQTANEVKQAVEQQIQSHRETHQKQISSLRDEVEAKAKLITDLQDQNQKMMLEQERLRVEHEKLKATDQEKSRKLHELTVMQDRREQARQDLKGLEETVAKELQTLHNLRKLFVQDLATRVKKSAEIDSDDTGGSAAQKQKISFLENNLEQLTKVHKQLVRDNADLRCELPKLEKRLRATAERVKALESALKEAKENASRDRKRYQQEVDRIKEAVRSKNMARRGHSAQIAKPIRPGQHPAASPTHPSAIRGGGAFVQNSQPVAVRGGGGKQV
Chain of tail-truncated human KIF5B (aa 1-420)-mScarlet-StrepII (P33176 1-420): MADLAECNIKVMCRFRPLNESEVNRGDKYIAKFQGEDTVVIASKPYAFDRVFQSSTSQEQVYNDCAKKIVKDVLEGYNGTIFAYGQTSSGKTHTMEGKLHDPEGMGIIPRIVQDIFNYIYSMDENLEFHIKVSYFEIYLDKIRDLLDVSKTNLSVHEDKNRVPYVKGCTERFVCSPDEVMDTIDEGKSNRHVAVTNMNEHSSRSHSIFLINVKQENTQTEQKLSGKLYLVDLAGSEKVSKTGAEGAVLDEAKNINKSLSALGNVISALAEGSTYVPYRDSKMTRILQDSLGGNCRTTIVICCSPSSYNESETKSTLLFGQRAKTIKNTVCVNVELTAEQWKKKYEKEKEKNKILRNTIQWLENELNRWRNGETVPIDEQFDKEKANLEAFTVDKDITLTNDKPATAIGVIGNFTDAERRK
Chain of KIF5B-IAK/AAA-mScarlet-StrepII (P33176 whole entry I920A/K922A): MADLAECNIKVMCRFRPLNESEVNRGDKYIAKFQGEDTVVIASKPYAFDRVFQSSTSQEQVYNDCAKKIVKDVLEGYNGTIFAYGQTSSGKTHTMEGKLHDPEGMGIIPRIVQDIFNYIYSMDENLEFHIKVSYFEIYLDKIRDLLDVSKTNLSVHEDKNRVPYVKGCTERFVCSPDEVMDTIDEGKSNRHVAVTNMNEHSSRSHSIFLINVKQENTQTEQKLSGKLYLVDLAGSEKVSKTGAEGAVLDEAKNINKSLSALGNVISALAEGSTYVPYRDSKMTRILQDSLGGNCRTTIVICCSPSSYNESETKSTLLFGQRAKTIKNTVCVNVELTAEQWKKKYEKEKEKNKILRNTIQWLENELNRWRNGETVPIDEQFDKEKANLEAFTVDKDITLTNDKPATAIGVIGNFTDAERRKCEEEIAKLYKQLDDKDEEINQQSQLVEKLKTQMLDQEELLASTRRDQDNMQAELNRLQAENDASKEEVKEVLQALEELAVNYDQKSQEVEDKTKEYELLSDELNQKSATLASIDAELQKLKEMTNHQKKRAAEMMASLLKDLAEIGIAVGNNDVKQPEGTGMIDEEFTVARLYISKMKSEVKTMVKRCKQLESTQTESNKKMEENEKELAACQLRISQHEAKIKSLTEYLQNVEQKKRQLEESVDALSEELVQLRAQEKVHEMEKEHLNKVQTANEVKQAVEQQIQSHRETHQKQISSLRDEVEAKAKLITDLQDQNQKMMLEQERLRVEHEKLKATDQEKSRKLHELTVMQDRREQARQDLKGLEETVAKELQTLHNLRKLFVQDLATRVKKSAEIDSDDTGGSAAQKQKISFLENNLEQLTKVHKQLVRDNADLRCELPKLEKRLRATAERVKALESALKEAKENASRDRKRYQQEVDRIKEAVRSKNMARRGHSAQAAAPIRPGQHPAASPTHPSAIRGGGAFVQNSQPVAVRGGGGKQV
Chain of KIF5C-KLC1 heterotetramer (human) (O60282 whole entry, chain 1 of 2): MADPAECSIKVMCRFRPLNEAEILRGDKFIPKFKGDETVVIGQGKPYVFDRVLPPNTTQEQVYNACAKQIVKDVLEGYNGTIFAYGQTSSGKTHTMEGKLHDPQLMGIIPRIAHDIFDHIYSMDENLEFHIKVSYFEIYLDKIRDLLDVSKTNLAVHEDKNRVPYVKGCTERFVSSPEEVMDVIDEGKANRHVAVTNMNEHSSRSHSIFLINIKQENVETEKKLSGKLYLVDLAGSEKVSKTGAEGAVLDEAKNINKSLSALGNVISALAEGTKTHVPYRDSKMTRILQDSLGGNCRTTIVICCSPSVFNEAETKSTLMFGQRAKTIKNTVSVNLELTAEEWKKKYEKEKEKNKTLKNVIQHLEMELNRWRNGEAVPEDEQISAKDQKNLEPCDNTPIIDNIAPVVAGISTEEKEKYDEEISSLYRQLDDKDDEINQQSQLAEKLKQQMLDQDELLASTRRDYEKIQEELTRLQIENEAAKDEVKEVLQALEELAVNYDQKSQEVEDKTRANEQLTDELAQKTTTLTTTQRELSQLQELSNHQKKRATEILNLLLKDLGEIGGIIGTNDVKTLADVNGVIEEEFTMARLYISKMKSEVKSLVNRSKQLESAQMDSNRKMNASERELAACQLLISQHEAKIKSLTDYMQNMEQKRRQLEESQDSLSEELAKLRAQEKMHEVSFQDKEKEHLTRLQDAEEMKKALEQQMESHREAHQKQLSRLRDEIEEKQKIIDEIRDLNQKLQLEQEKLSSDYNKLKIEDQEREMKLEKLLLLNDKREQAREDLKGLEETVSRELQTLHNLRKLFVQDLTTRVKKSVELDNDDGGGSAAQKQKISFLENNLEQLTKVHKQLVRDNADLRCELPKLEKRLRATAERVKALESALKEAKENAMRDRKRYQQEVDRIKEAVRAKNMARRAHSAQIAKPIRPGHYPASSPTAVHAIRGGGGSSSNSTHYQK
Chain of KIF5C-KLC1 heterotetramer (human) (Q07866 whole entry, chain 2 of 2, further chain): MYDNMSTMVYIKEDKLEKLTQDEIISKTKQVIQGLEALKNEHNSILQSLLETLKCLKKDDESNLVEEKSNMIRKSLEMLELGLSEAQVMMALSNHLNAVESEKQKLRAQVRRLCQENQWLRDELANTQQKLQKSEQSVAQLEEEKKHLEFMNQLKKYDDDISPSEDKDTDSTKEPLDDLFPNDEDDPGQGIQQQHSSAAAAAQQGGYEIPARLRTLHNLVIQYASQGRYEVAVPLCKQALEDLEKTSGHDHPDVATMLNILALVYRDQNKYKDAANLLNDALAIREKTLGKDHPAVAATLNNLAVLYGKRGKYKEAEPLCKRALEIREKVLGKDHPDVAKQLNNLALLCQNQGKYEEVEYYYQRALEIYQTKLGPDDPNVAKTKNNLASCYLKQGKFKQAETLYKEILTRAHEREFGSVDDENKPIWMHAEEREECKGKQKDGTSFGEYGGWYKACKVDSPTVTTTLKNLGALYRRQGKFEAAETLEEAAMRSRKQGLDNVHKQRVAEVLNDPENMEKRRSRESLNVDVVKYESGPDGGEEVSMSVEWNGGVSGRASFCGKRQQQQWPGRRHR
Chain of full-length human KIF5B-mScarlet-StrepII (P33176 whole entry): as the sequence (P33176 whole entry I920A/K922A) above, with A920I, A922K counted along it
Chain of tail-truncated human KIF5A (aa 1-416)-mScarlet-StrepII (Q12840 1-416): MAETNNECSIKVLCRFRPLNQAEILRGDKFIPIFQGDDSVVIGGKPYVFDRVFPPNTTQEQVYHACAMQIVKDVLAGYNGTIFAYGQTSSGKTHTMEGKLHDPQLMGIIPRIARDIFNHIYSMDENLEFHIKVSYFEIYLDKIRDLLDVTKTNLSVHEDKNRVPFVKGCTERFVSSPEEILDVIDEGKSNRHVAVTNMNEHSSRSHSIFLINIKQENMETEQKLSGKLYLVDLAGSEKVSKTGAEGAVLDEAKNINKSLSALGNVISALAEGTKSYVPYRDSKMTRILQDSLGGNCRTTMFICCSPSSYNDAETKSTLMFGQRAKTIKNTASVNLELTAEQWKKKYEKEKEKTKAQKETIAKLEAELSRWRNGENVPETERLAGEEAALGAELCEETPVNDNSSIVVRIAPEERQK
Chain of tail-truncated human KIF5C (aa 1-416)-mScarlet-StrepII (O60282 1-416): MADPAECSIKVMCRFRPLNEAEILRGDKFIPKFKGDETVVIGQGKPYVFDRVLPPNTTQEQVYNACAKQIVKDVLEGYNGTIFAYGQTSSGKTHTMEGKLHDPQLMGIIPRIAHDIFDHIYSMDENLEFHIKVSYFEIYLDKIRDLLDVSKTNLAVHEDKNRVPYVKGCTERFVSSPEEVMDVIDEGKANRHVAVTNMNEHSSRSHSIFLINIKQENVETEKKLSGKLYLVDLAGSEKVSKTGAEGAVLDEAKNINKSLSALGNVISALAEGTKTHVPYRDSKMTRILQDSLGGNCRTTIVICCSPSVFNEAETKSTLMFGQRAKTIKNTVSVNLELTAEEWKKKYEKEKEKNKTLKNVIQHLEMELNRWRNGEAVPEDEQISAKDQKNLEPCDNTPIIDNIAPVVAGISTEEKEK

Substance: 6xHis-2xStrepII-sfGFP-nesprin-4 (aa 1-240) WD/AA (from UniProt Q8N205-2 1-240) (domain or fragment)
- landing rate of 10 nM KIF5C-KLC1 on MTs (ATP) with 500 nM nesprin-4 WDAA (0.1 without) [1]: 0.2 /μm/s/μM

Substance: KIF5A-KLC1 heterotetramer (from UniProt Q12840 1-1032; Q07866 1-573) (complex)
- landing rate [2]: 0.1

Substance: KIF5B-KLC1 heterotetramer (from UniProt P33176 1-963; Q07866 1-573) (complex)
- landing rate (Motors/μm/s/μm) [2]: 0.06

Substance: KIF5C-KLC1 heterotetramer (from UniProt O60282 1-957; Q07866 1-573) (complex)
- landing rate [2]: 0.06

Substance: tail-truncated human KIF5A (aa 1-416)-mScarlet-StrepII (from UniProt Q12840 1-416) (domain or fragment)
- landing rate (motors/µm/s/µM) [2]: 162

Substance: tail-truncated human KIF5C (aa 1-416)-mScarlet-StrepII (from UniProt O60282 1-416) (domain or fragment)
- landing rate (motors/µm/s/µM) [2]: 147

Second part, the substance after the results:

- landing rate [3]: 6.2 /μm/s/μM
Substance: KIF5B-E178A-mScarlet-StrepII (from UniProt P33176 1-963) (natural protein)

- landing rate [3]: 5.4 /μm/s/μM
Substance: KIF5B-H129A-mScarlet-StrepII (from UniProt P33176 1-963) (natural protein)

- landing rate [3]: 7 /μm/s/μM
Substance: KIF5B-IAK/AAA-mScarlet-StrepII (from UniProt P33176 1-963) (natural protein)

- landing rate [3]: 22.8 /μm/s/μM
Substance: KIF5B-Δhinge (Δ505-610)-mScarlet-StrepII (from UniProt P33176 1-963) (natural protein)

- landing rate (Motors/μm/s/μm) [2]: 0.08
Substance: full-length human KIF5B-mScarlet-StrepII (from UniProt P33176 1-963) (natural protein)

- landing rate (motors/µm/s/µM) [2]: 146
Substance: tail-truncated human KIF5B (aa 1-420)-mScarlet-StrepII (from UniProt P33176 1-420) (domain or fragment)

Reference: publication PMC9365671
